Reference: publication PMC5897352, “Isolation and characterization of a multifunctional flavonoid glycosyltransferase from Ornithogalum caudatum with glycosidase activity” (Scientific Reports, 2018)

Experiments:
[1] = substrate: O=c1cc(-c2ccccc2)oc2cc(O)cc(O)c12; assay: HPLC glucosylation assay, Lineweaver-Burk; assay type: biochemical, Albuca bracteata; conditions: 1 mM UDP-Glc fixed, phosphate buffer pH 8.0, 50 °C, apparent Km
[2] = substrate: O=[N+]([O-])c1ccccc1O[C@@H]1O[C@H](CO)[C@H](O)[C@H](O)[C@H]1O; assay: HPLC hydrolysis assay (o-nitrophenol release), Lineweaver-Burk; assay type: biochemical, Albuca bracteata; conditions: no UDP or UDP-sugar, phosphate buffer (pH 6.0 in methods, optimum pH 7), 37 °C

B1: OcUGT1 (Albuca bracteata) (protein)
chain: MGSEAHGALHILFFPLMAPGHMLPMVDMAKLFAARGLKPTIFTTPGNVRLIQPSIDNANGSGHQNPIQLFTVPFPSIDGIPDGCENLSSVTQELHVKFFVGLGNLREPFKDSLARLRPDCIVSDMFLPWTADEAAERGMPRLVFHGSNFFTQCAYRSIEHHKVLESLAPGEDTFVIPGLPHRVELRRSTMPDIQTFAPELMDIILQTREAELKSLGTVMNTFYELEPDYADHFCNVMGRRAWNIGPLSLCNKDVADKWRRGNEASITSEFCLNWLDSQEPSSVVYVCFGSLSDFTTAQLREIAAGLEASGRPFVWVVRNHSEEWIPEGLEERVGGKGLIIRGWAPQILILSHVAVGGFLTHCGWNSILEGVSAGLPFVTWPLFADQFYNERLIVDVLKIGVAVGSNEYANKPEERKIIEAAKIEATINELMGDGKDADERREKARALGELAQRAVEKGGSSYRDLDNLISELVEKRSAV
notes: full-length ORF of 1440 bp (479 residues by ORF length)
**Q.** How did the Km [1] turn out when B1 was run?
**A.** 0.1506 ± 0.0139 mM

**Q.** And the Km [2]?
**A.** 6.897 ± 1.995 mM
